Target: the molecule itself
Assay: crystal structure

LSEGLRESLSSYISLAEDP (domain or fragment, UniProt Q8R4L0 237-255, looked up) [C-terminal tail of mouse SLAP2 (residues 237-255)]: binds.

Source: doi:10.1101/2020.06.18.159806 (bioRxiv, 2020)
